These results are taken from the DeepSol protein solubility set.

The data set in a line: soluble on expression in E. coli; label from the status in PepcDB or PDB records.
Take “MGSDKIHHHHHHMKIFITGATGLIGSNLIPLLLEKEYQITALVRDMEKARHQLPNQVQLVKALSHYENFNDFDGVINLAGAPIFAQYWTAGYKTELINSRLNLTENLTALINNSNKPPHCFISASATGYYGDQGNNLITEKSLSGNQFTAQLCQQWENIALQANSRVCLLRTGMVFSEKGGALTKILPIYRYGVGGKLGTGKQFWAWISLQDMLQAILFLLENAQCEGAFNLVAPKPIQNKDFNCQLGAWLKRPYLATVPKFLLNLLLGERATLLLDSQNVIPQKLLEAGFHFSTPTFSDFLHSIKK”: the “soluble on expression in E. coli” value is reported as “not soluble”.

On to “MSLENHWYEVKQTQSEGFFKDLNGSRTKESISYFPKIYYRMKDGLLSIRVQISLGKYQDQLLKLEKKLESGLYCELVEKELKDSYVDYTLLYDMIANRIGIEEAVVENGALRLMKNQVWAYDFLPHMLIAGGTGGGKTYFLLTIIEALLKSDAELFILDPKNADLADLGTIMTHVYSQKEQISACVEDFYERMMVRSRLMKEMPNYKTGENYAYLGLSPNFLVFDEYVAYMEMLTTKESAVILNKLKQIVMLGRQSGFFLILACQRPDAKYLGDGIRDQFNFRVALGRMSELGYSMMFGEVDKIFFMKQIKGRGYVDTGGGVVSEFYTPLVPKGYDFLESTKTIVQNNINEGHHHHHH”, for which the “soluble on expression in E. coli” value is listed as “soluble”.

With “AHQYGVKSYIGIPRSYSHDRTDFMQSEQAEILYYDGKYEETVEFIRDFSKDNGLYDASPGSANSSIDKMMYATIAFEIYEALLTVPSYVIVPVGNGTTLAGIYHGFRRMYDEGVIDHLPRMVGVSTSGGNPIVDSWRHGYSRVVDLNPEEIRETSINEPLVSYRSFDGQDALSAIRETHGRAMYVSDEEMVYYSNLIYSAEGLNPLPASASAVAAIGHLKVKQDETVVSVITGRQI”, the “soluble on expression in E. coli” value was “not soluble”.

As to “MGHHHHHHGGHMSLAQNDHETVDMLLVGAGIMSATLAVLLKELDPNLKMEVVELQESGAIESSNPWNNAGTGHAGLCELNYTPQSADGSIDIKKAVGINTMFEVSKQLWSHLVAKGTFGSPKTFINPVPHLSFVRGSEGIAYLKKRFESLTKHHAFETMVYSEDKATLAEWMPLMMPGRPADEAIAATRVEGGTDVNFGALTNQLLQHLAQQPGAQIRYNQKVTHLRRADNGWRVTVKDTRNGGDREIQARFVFLGAGGGALPLLQLSGIPEGKGFGGFPVSGQWLRCDNPEIVKQHQAKVYSQAEVGSPPMSVPHLDTRVVDGKKSLLFGPYAGFSTKFLRHGSFLDLPLSVRPGNILPMLSVARDNMDLTRYLIGQVMQSPEQRLEALRKFYPEARAEDWRLEVAGQRVQIIKKDPKKGGILQFGTELVAAHDGSIAALLGASPGASVTVSIMLGLIERCFPEQARSPEWSAKLKEIFPAREKELESDAELYRSVSSRCSEVLELTAKNDVQAEGGS”, the “soluble on expression in E. coli” value is recorded as “soluble”.

In the case of “AHHHHHHGSFFLKTKIIEGRGSLEYLQKEAIGFERALILASSSMKRLGFLKEAEDYLREGGVEVISIAGLPPEPTKDVVDEFLPKVREFSPEILIAIGGGSVIDMAKALKVFYDVPGISFEEVAIKSRFSKPRPVPKLKTPLIAIPSTSGAGSEVSAASVIKVGDVKYTIVTPEIAPEVAILDPRLPEGMPPEVARNSGMDVLVHAIEAYVSKASSPFTDAMAVKAAKAVLEHLEESIRGDKNAREKIHYAATMAGIAFLNARLGLVHAMSHKAAWIGPHGLVNAILLPYVMEYNMARRREKYDALARELGFDNAEELLEEIKALNERLGIGPISSYVSEEEFLAKLDEMVERAYEDPLVNFNPVEPRKEDIRRIYERAFYGD”, the “soluble on expression in E. coli” value was “soluble”.

In the case of “MDIRARTKIIDIYSNLKYKKPLKSFQKILTTSDSDNCEDFFNIGLNIDKNKITAIGFDGDGCIISTIATELSIKAIENKTINQAKKILSDLIATYKDKNSANQVVEELKLLIEMNVTEKRLQCLLLTPSNLLQWFKNF”, the “soluble on expression in E. coli” value is “not soluble”.

As for “MSLGANIVSVEFIPVNVAATNWSENTVIVKVTDENGVYGLGEADGPPECMKAFSEIENEHKWLNNIKEAVIGRDPLEFRANYNRMYDTTKWIGMRGLGLFAISGIDMALYDLAGKQLGVPAYKLMGGAQKAQLTPYFTLYPSVAADATLSEIVEAYKPLIAKAKERGAKAVKVCIIPNDKVSDKEIVAYLRELREVIGWDMDMMVDCLYRWTDWQKARWTFRQLEDIDLYFIEACLQHDDLIGHQKLAAAINTRLCGAEMSTTRFEAQEWLEKTGISVVQSDYNRCGGVTELLRIMDICEHHNAQLMPHNWKTGITAAAARHFGIVCHISEYVEYLHPDFWNGTLTQQLTLNEPKIIDGAIEVSDKPGLGIELNIEFVEQVTGHKFEGHHHHHH”, the “soluble on expression in E. coli” value is given as “soluble”.
